Reference: US20190389914A1 (University of California, published 2019)
Positions count from the first letter of the chain named. Numbers in names are those of the source.

How the values were obtained:
[1] = target: GAL4 activation domain fusion to HAB1^!-3 (pACT-HAB1^!-3; D204A in HAB1^!-2) (Arabidopsis thaliana (Mouse-ear cress)) (UniProt Q9CAJ0); test: Y2H, mandipropamid (FIG. 5)
[2] = target: GAL4 activation domain fusion to HAB1 (pACT-HAB1), wild type (Arabidopsis thaliana (Mouse-ear cress)) (UniProt Q9CAJ0); test: Y2H, mandipropamid (FIG. 6)
[3] = target: GAL4 activation domain fusion to HAB1^V393R (Arabidopsis thaliana (Mouse-ear cress)) (UniProt Q9CAJ0); test: Y2H, ABA, beta-gal staining (FIG. 1)
[4] = target: T1, 6x-His-PYR1 (recombinant wild type, E. coli) (Arabidopsis, UniProt O49686 1-191); test: pull-down on His-tag resin, SDS-PAGE (FIG. 8)
T1 construct: Previously constructed (Park et al., 2009); also called 6×-His-PYR1; wild type PYR1; not shown: 6x-His tag
T1 sequence: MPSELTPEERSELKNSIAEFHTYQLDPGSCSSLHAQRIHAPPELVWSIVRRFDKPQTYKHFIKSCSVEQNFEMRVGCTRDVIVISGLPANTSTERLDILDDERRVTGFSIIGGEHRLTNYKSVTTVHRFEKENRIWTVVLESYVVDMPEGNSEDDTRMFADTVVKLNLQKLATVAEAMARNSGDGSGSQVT

[5] = target: T2, GAL4 activation domain fusion to HAB1^!-2 (pACT-HAB1^!-2; HAB1^V393R/R505A) (Arabidopsis thaliana (Mouse-ear cress), UniProt Q9CAJ0 4-511); test: Y2H, mandipropamid (FIG. 3)
T2 construct: R505A introduced into the pACT clone carrying V393R; the pACT-HAB1 template lacks the three N-terminal amino acids of HAB1; also called HAB^!-2
T2 sequence: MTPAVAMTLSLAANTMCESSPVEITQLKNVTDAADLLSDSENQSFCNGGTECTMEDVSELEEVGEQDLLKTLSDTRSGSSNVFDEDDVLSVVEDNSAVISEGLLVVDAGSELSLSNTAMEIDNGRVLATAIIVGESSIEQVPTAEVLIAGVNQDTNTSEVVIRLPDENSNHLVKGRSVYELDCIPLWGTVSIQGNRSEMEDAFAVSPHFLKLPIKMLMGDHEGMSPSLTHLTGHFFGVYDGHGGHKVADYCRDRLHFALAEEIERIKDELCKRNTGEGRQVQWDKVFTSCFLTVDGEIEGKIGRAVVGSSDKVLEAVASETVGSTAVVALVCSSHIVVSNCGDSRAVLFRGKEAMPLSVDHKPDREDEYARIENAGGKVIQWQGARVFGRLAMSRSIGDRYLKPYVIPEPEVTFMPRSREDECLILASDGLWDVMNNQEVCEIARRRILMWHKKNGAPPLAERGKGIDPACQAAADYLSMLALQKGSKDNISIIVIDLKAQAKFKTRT

[6] = target: T3, GAL4 activation domain fusion to HAB1^V393R (Arabidopsis thaliana (Mouse-ear cress), UniProt Q9CAJ0 4-511); test: Y2H, mandipropamid (FIG. 3)
T3 construct: Mutant of the pACT-HAB1 template, which lacks the three N-terminal amino acids of HAB1; Denoted HAB1^!
T3 sequence: T2 sequence with A502R

GAL4 DNA binding domain fusion to PYR1*^-MANDI (PYR1^Y58H;K59R;V81I;F108A;S122G;M158I;F159V;A160V;T162D) (from UniProt P04386 1-147) (receptor)
fold less sensitive to mandipropamid relative to HAB1^!-2 [1]: 10 fold
fold less sensitivity to mandipropamid than the orthogonal interaction [2]: 10 fold

GAL4 DNA binding domain fusion to PYR1^T162D (from UniProt P04386 1-147) (receptor)
fold less sensitive to ABA than wild type pBD-PYR1/pACT-HAB1 control cells [3]: 4 fold

B1: GST-HAB1* (recombinant, E. coli) (enzyme)
chain: T2 sequence with R196A, D201A, S319D
notes: Cloned into pGEX-4T-1; not shown: glutathione S-transferase (GST) of pGEX-4T-1
binding result [4]: no binding

B2: GAL4 DNA binding domain fusion to PYR1^!-MANDI (PYR1^Y58H;K59R;V81I;F108A;S122G;F159L;T162D) (receptor, not shown: small tags and cut ends)
chain: T1 sequence with Y58H, K59R, V81I, F108A, S122G, F159L, T162D
notes: Septuple mutant; also called pBD-PYR1^!-MANDI
fold less sensitive to mandipropamid than the PYR1^MANDI/HAB1 interaction [5]: ~100 fold
fold less sensitive to mandipropamid than the PYR1^MANDI/HAB1 interaction [6]: ~100 fold
